Measured values as given in patent publication US20210134388A1, “Hyperstable Constrained Peptides and Their Design” (University of Washington, priority 2016, published 2021).
Positions of bridges follow the written chain, without caps; N, C: chain ends. Non-standard residues stand in square brackets, D forms with d. No end group written: not given here.

How the values were obtained:
Type in all cases: physicochemical
[1] = Chemical denaturation with guanidinium hydrochloride (GdnHCl) monitored by CD spectroscopy; conditions: 0 M to 6 M GdnHCl
Method: (§1) The stability of the designs to thermal and chemical denaturation was assessed by CD spectroscopy. Samples were heated to 95° C. (FIG. 2c), or incubated with increasing concentrations of guanidinium hydrochloride (GdnHCl) (FIG. 2d). The contribution of disulfide bonds to protein folding was assessed by incubating samples with a ˜100-fold molar excess of the reductant tris (2-carboxyethyl) phosphine (TCEP).
(§2) Circular dichroism (CD) wavelength and temperature scans were recorded on AVIV model 420 or Jasco J-1500 CD spectrometer. For thermal denaturation, peptides samples were prepared at 0.07-0.2 mg/ml final concentration in 10 mM sodium phosphate buffer (pH 7.0). Wavelength scans from 195 nm to 260 nm were recorded at 25° C., 55° C., 95° C., and again after cooling back to 25° C. For chemical denaturation experiments, samples for each peptide were prepared in the presence of 0 M to 6 M GdnHCl concentrations. The concentration of GdnHCl was measured by refractometry. Peptide samples were also prepared in the presence of 2.5 mM TCEP (TCEP was pre-equilibrated to pH 7.0 prior to addition), and incubated for 3 hours. Peptide concentrations were the same across all samples. Wavelength scans from 190 nm to 260 nm were recorded for each sample in 0.1 cm cuvette.

[2] = Reduction of disulfide bonds with TCEP, folding monitored by CD spectroscopy; conditions: 2.5 mM TCEP (~100-fold molar excess), incubated for 3 hours
Method: as §1, §2

[3] = Thermal denaturation monitored by CD spectroscopy; conditions: CD wavelength scans, heated to 95° C. and cooled back; 10 mM sodium phosphate buffer (pH 7.0)
Method: as §1, §2

[4] = NMR secondary 1Hα chemical shifts at a range of temperatures
Method: FIG. 19: Secondary ^1Hα chemical shifts at a range of temperatures for peptide NC_cHLHR_D1 (SEQ ID NO:09). NMR spectra were collected at 25° C. (black bars), 55° C. (blue bars), 75° C. (red bars), and again after cooling to 25° C. (green bars).
Each non-canonical peptide (1 mg) was dissolved in […] of 10% D20/90% H2O or 100% D2O (˜pH 4). NMR spectra were recorded at 298K on a Bruker Avance-600 spectrometer. Two-dimensional NMR experiments included TOCSY with an […] MLEV-17 spin lock, NOESY (200 ms mixing time), ECOSY, as well as natural-abundance ^13C and ^15N HSQC. Solvent suppression was achieved using excitation sculpting. Spectra were processed using Topspin 2.1 then analyzed using CcpNmr Analysis. Chemical shifts were referenced to internal 2,2-dimethyl-2-silapentane-5-sulfonate (DSS).

Question: What does the source list for “HDPEKRKECEKKYTDPKKREECKRKA (cyclo(HDPEKRKECEKKYTDPKKREECKRKA); disulfide 9-22; not fully specified (some residues)) [NC_cHH_D1]”?
Answer: stability to chemical denaturation (CD spectra) [1]: do not chemically denature; folding / secondary structure in the presence of the reductant TCEP (CD spectra) [2]: lost secondary structure

Question: For “NDKCKELKKRYPNCEVRCDpPRYEVHC (NDKCKELKKRYPNCEVRCD[dP]PRYEVHC; disulfide 14-27, 4-18; not fully specified; printed as NDKCKELKKRYPNCEVRCDpPRYEVHC) [NC_HEE_D1]”, which “stability to thermal denaturation (CD spectra)” value [3] is on record?
Answer: no loss in secondary structure

Question: And the “stability to chemical denaturation (CD spectra)” value [1]?
Answer: does not denature in 6 M GdnHCl

Question: Which “stability to thermal denaturation (CD spectra)” value [3] does the source give for “NPELQRKCKELdTRpeaerkcreeSD (cyclo(NPELQRKCKEL[dD]TR[dP][dE][dA][dE][dR][dK][dC][dR][dE][dE]SD); disulfide 8-21 (inferred)) [NC_cHLHR_D1]” here?
Answer: no change was observable on heating to 95 °C

Question: And the “change of secondary 1Hα chemical shifts (secondary structure) on heating” value ([4]; NMR spectra at 25° C., 55° C., 75° C.)?
Answer: no significant loss of secondary structure resulting from heating

Question: What about the “aggregation or irreversible conformation change on heating (secondary chemical shifts after cooling)” value ([4]; NMR, again after cooling to 25° C.) of the same substance?
Answer: not aggregation-prone or otherwise prone to irreversible conformation changes on heating

Question: Which results are given for “CKQRRRYRGSEEECRKYAEELSRRTGCEVEVECET [gEHE_06]”?
Answer: stability to thermal denaturation (CD spectra) [3]: thermally and chemically stable; stability to chemical denaturation (CD spectra) [1]: thermally and chemically stable; folding / secondary structure in the presence of the reductant TCEP (CD spectra) [2]: remained folded in the presence of TCEP

Question: Which results are given for “TCEIRVTDTHCKVHCGTQEYKVPPGRTLKVGNCRFTYHDTTCTVECR [gEEEEEE_02]”?
Answer: stability to thermal denaturation (CD spectra) [3]: resistant to both thermal and chemical denaturation; stability to chemical denaturation (CD spectra) [1]: resistant to both thermal and chemical denaturation

Question: For “EERRYKRCGQDEERVRRECKERGERQNCQYQIRKEGNCYVCEIRC [gEHEE_06]”, which “stability to thermal denaturation (CD spectra)” value [3] is on record?
Answer: thermostable

Question: What about the “stability to chemical denaturation (CD spectra)” value [1] of the same substance?
Answer: completely resistant to chemical denaturation

Question: What does the source list for “PVTWCVRIpPTVRCTVRp (cyclo(PVTWCVRI[dP]PTVRCTVR[dP]); disulfide 5-14 (inferred)) [NC_cEE_D1]”?
Answer: stability to chemical denaturation (CD spectra) [1]: do not chemically denature; folding / secondary structure in the presence of the reductant TCEP (CD spectra) [2]: not changed by reduction of the central disulfide bond

Question: Which “stability to thermal denaturation (CD spectra)” value [3] does the source give for “PCECDVNGETYTVSSSEECERLCRKLGVTNCRVHCG [gEEHE_02]” here?
Answer: impervious to both thermal and chemical denaturation

Question: What about the “stability to chemical denaturation (CD spectra)” value [1] of the same substance?
Answer: impervious to both thermal and chemical denaturation

Question: What about the “folding / secondary structure in the presence of the reductant TCEP (CD spectra)” value [2] of the same substance?
Answer: remained partially folded in the presence of TCEP

Question: With “NPEDCRQDPEANKSPEECKKLK (cyclo(NPEDCRQDPEANKSPEECKKLK); disulfide 5-18; not fully specified (some residues)) [NC_cHHH_D1]” as the substance, how does the “stability to chemical denaturation (CD spectra)” value [1] read?
Answer: some loss of secondary structure in 6M GdnHCl

Question: What about the “folding / secondary structure in the presence of the reductant TCEP (CD spectra)” value [2] of the same substance?
Answer: lost secondary structure

Question: With “CQTWRrVSPEECRKYKEEYnCVRCTE (CQTWR[dR]VSPEECRKYKEEY[dN]CVRCTE; disulfide 1-21, 12-24) [NC_EHE_D1]” as the substance, how does the “stability to thermal denaturation (CD spectra)” value [3] read?
Answer: only a small decrease

Question: For “SQETRKKCTEMKKKFKNCEVRCDESNHCVEVRCSDTKYTLC [gHEEE_02]”, which “stability to thermal denaturation (CD spectra)” value [3] is on record?
Answer: resistant to both thermal and chemical denaturation

Question: And the “stability to chemical denaturation (CD spectra)” value [1]?
Answer: resistant to both thermal and chemical denaturation

Question: With “QCYTFRSECTNKEFTVCRPNPEEVEKEARRTKEEECRK [gEEH_04]” as the substance, how does the “stability to thermal denaturation (CD spectra)” value [3] read?
Answer: less stable than the others to thermal denaturation

Question: Which “stability to thermal denaturation (CD spectra)” value [3] does the source give for “PCEDLKERLKKLGMSEECRQRLEKMCKEGTSEDAERMARNCES [gHHH_06]” here?
Answer: partially unfolds upon heating to 95 °C but returns to the folded state upon cooling

Question: With AEDCERIRKELEKNPNDEIKKKLEKCQA [gHH_44] as the substance, how does the “stability to thermal denaturation (CD spectra)” value [3] read?
Answer: resistant to thermal denaturation

Question: Which “stability to thermal denaturation (CD spectra)” value [3] does the source give for “CRCHITSSCVRVEGDNGEEYRYCSSDEEDLRRFCKEMQKQC [gEEEH_04]” here?
Answer: resistant to both thermal and chemical denaturation

Question: What about the “stability to chemical denaturation (CD spectra)” value [1] of the same substance?
Answer: resistant to both thermal and chemical denaturation
